{
  "source": "paper PMC9307593",
  "binders": {"B1": {"name": "recombinant wild-type NUPR1 (natural protein)", "chain": "MATFPPATSAPQQPPGPEDEDSSLDESDLYSLAHSYLGGGGRKGRTKREAAANTNRPSPGGHERKLVTKLQNSERKKRGARR"}, "B2": {"name": "NUPR1 (detected with the anti-NUPR1 antibody in MiaPaCa-2 cells) (natural protein)", "chain": "MATFPPATSAPQQPPGPEDEDSSLDESDLYSLAHSYLGGGGRKGRTKREAAANTNRPSPGGHERKLVTKLQNSERKKRGARR"}},
  "key": {"PARP1-Flag": {"molecular_target": "PARP1-Flag", "assay": "proximity ligation; MiaPaCa-2 cells transfected with PARP1-Flag; mouse anti-Flag and rabbit anti-NUPR1 antibodies; untreated or 24 h with ZZW-115 1.5 uM, 5-FU 10 uM, olaparib 25 uM or 5-FU + olaparib; foci counted with ImageJ"}},
  "data": [
    {"binder": "B1", "values": [
      {"measurement": "inhibition of PARP1 enzymatic activity in an acellular PARP1 activity assay with 2 and 4 µM rNUPR1 (26.5% at 2 µM, 48.4% at 4 µM)", "setting": "recombinant PARP1", "value": 48.4, "unit": "%"}
    ]},
    {"binder": "B2", "values": [
      {"measurement": "PLA foci/cell (cells treated with 5-FU)", "setting": "PARP1-Flag", "value": 94.7, "unit": "foci/cell"},
      {"measurement": "PLA foci/cell (cells treated with ZZW-115)", "setting": "PARP1-Flag", "value": 12.5, "unit": "foci/cell"},
      {"measurement": "PLA foci/cell (control condition)", "setting": "PARP1-Flag", "value": 59.5, "unit": "foci/cell"}
    ]}
  ]
}
